Consider eight sequences from the DeepSol protein solubility set.

A short description of the series: soluble on expression in E. coli; label from the status in PepcDB or PDB records.
On to “MVATVVNVQVKNEEKIETAPKKVVFDTKNLNLWYGEDHALKDINLSIHENEVTAIIGPSGCGKSTYLKTLNRMVELVPIVRTTGVIEYRERNIFDKSYPVEELRTHVGMVFQKPNPFPKSIYENVAYGPKIHGISDKKTLDEIVEKSLRGAAIWDELKDRLHDNAYGLSGGQQQRLCIARCLAIEPDVILMDEPTSALDPISTLKVEELIQELKKDFSIVIVTHNMQQAARISDKTAFFLSGEVVEYTDTNKLFTTPSDKRTEDYITGRFG”, for which the “soluble on expression in E. coli” value was “not soluble”.
For “MAHHHHHHMCLSTCLLYLKQIREDSQYVIISRIDHKTCYKCISFCNLKYFVVDMIYKNEELYTDLEGIEKLLEEYKEKICCVMSATSVYAPRNSDDIIKIAHICKKYNTPHIINNAFGLQCTYICKEIQKCFESQGRVDFVVQSCDKNFLVPVNGGIIFSSNREQMKLLKKSYPGRTPVNAYLDLFITLLEMGKDKIMNLRKERVDNFNWLKEKIQLLCLKYNLELIKTSKNFISMAINLNHMYTHCNTDNPKVINMLGSMLFYRNVTGHRVICSPLLNRNYLLKKAREKYMNMLENKKGNDAMMITSNESNEENVKRDLSKKEADIYDNMYSNGFDEIKSVENDMLQNKSNIIKAYEKQIEEEFDKLNEPNTIVIGNHKFKNFGSSYNSYPISYIAFSCVVGIERPELENFVSKLDNAIDYFIKFFKKKKEEELK”, the “soluble on expression in E. coli” value was “not soluble”.
“MAAAAAAAGGAALAVSTGLETATLQKLALRRKKVLGAEEMELYELAQAAGAAIDPDVFKILVDLLNLNVAPLAVFQMLKSMCAGQRLASDPQDSVPISLSTSTSETRGRNRGGPILGNVTISAERGSRERPIQRMPRQPSATRLPKVGGSGKSNSRSSP”: the “soluble on expression in E. coli” value is on record as “soluble”.
For the sequence “MIRFAVIGTNWITRQFVEAAHESGKYKLTAVYSRSLEQAQHFANDFSVEHLFTSLEAMAESDAIDAVYIASPNSLHFSQTQLFLSHKINVICEKPLASNLAEVDAAIACARENQVVLFEAFKTACLPNFHLLRQALPKVGKLRKVFFNYCQYSSRYQRYLDGENPNTFNPAFSNGSIMDIGFYCLASAVALFGEPKSVQATASLLASGVDAQGVVVMDYGDFSVTLQHSKVSDSVLASEIQGEAGSLVIEKLSECQKVCFVPRGSQMQDLTQPQHINTMLYEAELFATLVDEHLVDHPGLAVSRITAKLLTEIRRQTGVIFPADSVKL”, the “soluble on expression in E. coli” value is given as “soluble”.
The result for “MGHHHHHHSHMKMEHQNKRSPLHAAAEAGHVDICHMLVQAGANIDTCSEDQRTPLMEAAENNHLEAVKYLIKAGALVDPKDAEGSTCLHLAAKKGHYEVVQYLLSNGQMDVNCQDDGGWTPMIWATEYKHVDLVKLLLSKGSDINIRDNEENICLHWAAFSGCVDIAEILLAAKCDLHAVNIHGDSPLHIAARENRYDCVVLFLSRDSDVTLKNKEGETPLQCASLNSQV” reads “not soluble”; that for “MAFDAARYVHRYYASLAPAPGNEYPRLRAWEYLWEYVWDPSRSWDDLTAPEQLDTTALHLGFYLANWGMFRGSSGLLQNSNLDLMKALARQLFSGAGPELFELSLVDFAGNGARLAHNRKLLETVLGSMDALSSRVSWTDTLKSKILLGVWGEFPALDRHYVAACRALYPRRGLTSVNGGTLTALHRLIGEERLSFPRLETARKGLLYPTGRLADMAFFQYGLENALEHHHHHH”, “soluble”.
With “MGSDKIHHHHHHMEQHQVWAYQTKTHSVTLNSVDIPALAADDILVQNQAIGINPVDWKFIKANPINWSNGHVPGVDGAGVIVKVGAKVDSKMLGRRVAYHTSLKRHGSFAEFTVLNTDRVMTLPDNLSFERAAALPCPLLTAWQAFEKIPLTKQREVLIVGFGAVNNLLTQMLNNAGYVVDLVSASLSQALAAKRGVRHLYREPSQVTQKYFAIFDAVNSQNAAALVPSLKANGHIICIQDRIPAPIDPAFTRTISYHEIALGALHDFGDRQDWQILMQQGEALLTLIAQGKMEIAAPDIFRFEQMIEALDHSEQTKLKTVLTLNE”, the “soluble on expression in E. coli” value is listed as “not soluble”.
In the case of “SDLDYGGVPLWINRFLGEPSVLTLKDRIDPGWYRAVNTQSCPLECDCPIQWPTAIYCDHRGLNQLPSGLPFRLQYLFLQGNNITSLGSRAFDNTTYLRWLILDHNELLSEQLDNVLFSSLTRLVNLFINHNNLTKVPAGLPSGLKQLRLAYNHIEKISEGDFQNLDSLTLILLQGNRLKTIEEGDFKGLGALNLLDLSHNFLDTFPKHLPPSVQQLYLSNNSLTGLSENSLHAFSGLRYLRLGHNKLRNERLDPGAFNLTSLVELDLSYNRLTEIPSVPITLQYLYLEVNHIQEFNVSSFCRTVGPTSYSRMKILRLDGNKLEYHKLPPDWVFCLRVLHNIYI”, the “soluble on expression in E. coli” value is “soluble”.
